This is an account of results in the RNAGym collection of RNA variant scans (doi:10.1073/pnas.2313332121).

The labels stand for the following.
B1: TPR 5TU (parent)
chain: GGAUCUUCUCGAUCUAACAAAAAAGACAAAUCUGCCACAAAGCUUGAGAGCAUCUUCGGAUGCAGAGGCGGCAGCCUUCGGUGGCGCGAUAGCGCCAACGUUCUCAACUAUGACACGCAAAACGCGUGCUCCGUUGAAUGGAGUUUAUCAUG

Variants at the floor of the assay were thinned out. Where only a bound is given, the exact number is not on record here.

The data set covers variants of B1. Description: polymerase ribozyme fitness, log enrichment relative to wild type (log ratio); higher = more active; in vitro selection for triplet polymerase activity. Summed up: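 After PCR construction and transcription, each subunit's mutant library from a heterodimeric triplet polymerase ribozyme was annealed with a biotinylated primer, the partner subunit and triplets. Incubation was frozen, at −7 °C, and extended constructs were gel-excised, bound to streptavidin beads and amplified by RT-PCR, in one selection round done in triplicate. Fitness is the logarithm of a genotype's enrichment divided by that of the wild type, from inverse-variance-weighted replicate averages of Illumina-sequenced inputs and outputs. The base of the logarithm is 2, and genotypes needed ≥10 input reads and ≥1 read per output.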
Take A20U C57G G88U A89U: the “polymerase ribozyme fitness (log ratio)” value is at most -4.2.

With A26U U55A A60C, the “polymerase ribozyme fitness (log ratio)” value is at most -4.2.

On to A19C C63U A120G U145A, for which the “polymerase ribozyme fitness (log ratio)” value was 0.504.

On to C72U C79A C85U, for which the “polymerase ribozyme fitness (log ratio)” value is at most -4.2.

As to C10G A98G, the “polymerase ribozyme fitness (log ratio)” value was -4.

With G84A C116A, the “polymerase ribozyme fitness (log ratio)” value came out at 0.83.

On to C69U A122U, for which the “polymerase ribozyme fitness (log ratio)” value is -1.27.

In the case of U13G G59U C85U G94U G112A C116A, the “polymerase ribozyme fitness (log ratio)” value is at most -4.2.

In the case of A21U U53A A73C C76A G88A C114U U134A, the “polymerase ribozyme fitness (log ratio)” value is at most -4.2.

As for C18U G74C C96A, the “polymerase ribozyme fitness (log ratio)” value was at most -4.2.

For the variant C85G A122G C123A, the “polymerase ribozyme fitness (log ratio)” value is -2.57.

Consider A66C C96A, for which the “polymerase ribozyme fitness (log ratio)” value was at most -4.2.

C5A A64G A66G U134G: the “polymerase ribozyme fitness (log ratio)” value is at most -4.2.

For the variant A20U C54G G70C C79G G92U A107U, the “polymerase ribozyme fitness (log ratio)” value is at most -4.2.

As for U33G G48A U61A A121U A142G, the “polymerase ribozyme fitness (log ratio)” value is -3.95.

U6A C125G: the “polymerase ribozyme fitness (log ratio)” value is -0.431.

Take C10U C96U: the “polymerase ribozyme fitness (log ratio)” value is -2.51.

Take A16U G46C U61A G67C G83C A142C: the “polymerase ribozyme fitness (log ratio)” value was at most -4.2.

Take U4C A19C C38G C93U C114G: the “polymerase ribozyme fitness (log ratio)” value is at most -4.2.

As to A49C C103G A115G, the “polymerase ribozyme fitness (log ratio)” value was at most -4.2.

In the case of C75A C79G C93A, the “polymerase ribozyme fitness (log ratio)” value is -4.11.

Take A21C A30U U33G A60U C85A: the “polymerase ribozyme fitness (log ratio)” value was at most -4.2.

As for C18G A21G G48U U82A G100A G136A, the “polymerase ribozyme fitness (log ratio)” value is at most -4.2.

As to G25C A41C C96G A110G U148C, the “polymerase ribozyme fitness (log ratio)” value is at most -4.2.

With U15A A22C A40C A60G, the “polymerase ribozyme fitness (log ratio)” value is 0.68.

Consider A17C G50U C54U C96G, for which the “polymerase ribozyme fitness (log ratio)” value is -1.28.

Regarding A28U G80U, the “polymerase ribozyme fitness (log ratio)” value is -4.11.

As for C35G G48A G58U C79U C85U, the “polymerase ribozyme fitness (log ratio)” value was at most -4.2.

On to C27A C43A A66U C93G G140U G141A U146G, for which the “polymerase ribozyme fitness (log ratio)” value is at most -4.2.

Turning to U77C G92C U139C A150U, the “polymerase ribozyme fitness (log ratio)” value is at most -4.2.

Turning to C38G G143C C149U, the “polymerase ribozyme fitness (log ratio)” value was at most -4.2.

On to U15G G83U, for which the “polymerase ribozyme fitness (log ratio)” value was -0.494.

Regarding A21C U56G G62C U101G, the “polymerase ribozyme fitness (log ratio)” value is -3.54.

A49U G58U U78A C96G C103U U135A: the “polymerase ribozyme fitness (log ratio)” value is at most -4.2.

For C85G G128A, the “polymerase ribozyme fitness (log ratio)” value was at most -4.2.

For the variant A19U C27U A47U G50U C79G C93G G141A U145G, the “polymerase ribozyme fitness (log ratio)” value is at most -4.2.

For the variant C57U G59C G83C, the “polymerase ribozyme fitness (log ratio)” value was -1.17.

For C32U C43A C87G A107C C118U G124C, the “polymerase ribozyme fitness (log ratio)” value was at most -4.2.

On to A26U A41C A49U U53A C95U U130A C132A G143A U148C, for which the “polymerase ribozyme fitness (log ratio)” value was at most -4.2.

On to A47G G48A G70A U77G C95U C108G A122U, for which the “polymerase ribozyme fitness (log ratio)” value is at most -4.2.

As for A52G A119G, the “polymerase ribozyme fitness (log ratio)” value was -0.813.

With U9G U13C A24U A49C C51G A52C A73C U104A C108G, the “polymerase ribozyme fitness (log ratio)” value was at most -4.2.

As to A40G C51U U56A U78A G83C, the “polymerase ribozyme fitness (log ratio)” value is at most -4.2.

G50U U130A: the “polymerase ribozyme fitness (log ratio)” value is -2.51.

Consider A40G U55A, for which the “polymerase ribozyme fitness (log ratio)” value is -2.

Turning to G50C A66C C79G C93U C95U U139C A147U, the “polymerase ribozyme fitness (log ratio)” value is at most -4.2.

As to A91G U144C, the “polymerase ribozyme fitness (log ratio)” value was -2.47.

C10G G86A: the “polymerase ribozyme fitness (log ratio)” value is -3.52.

In the case of G11A U44A G48A C57U C96U, the “polymerase ribozyme fitness (log ratio)” value is at most -4.2.

Consider C75A G86A U104G A106G, for which the “polymerase ribozyme fitness (log ratio)” value is at most -4.2.

With C36U A98U, the “polymerase ribozyme fitness (log ratio)” value is -1.07.

As to U7G U13A A17U A98U A107C U146C, the “polymerase ribozyme fitness (log ratio)” value is at most -4.2.

As to C38U A66G, the “polymerase ribozyme fitness (log ratio)” value is at most -4.2.

With U31C C95U A97U C99U G133U A150G, the “polymerase ribozyme fitness (log ratio)” value is at most -4.2.

U7A A29G C85A C114A A121G U134C: the “polymerase ribozyme fitness (log ratio)” value is at most -4.2.

For the variant A19G C57U G92A U104G C116U, the “polymerase ribozyme fitness (log ratio)” value was -4.18.

As to U7A A28C C57U C87G C95U C125A, the “polymerase ribozyme fitness (log ratio)” value is at most -4.2.

For A22C G83U A115G, the “polymerase ribozyme fitness (log ratio)” value was -1.96.

As to G50A U53A G58C C79U A121G U134A U139G, the “polymerase ribozyme fitness (log ratio)” value is at most -4.2.

For the variant U4C C76U, the “polymerase ribozyme fitness (log ratio)” value is -0.762.

In the case of U56A U135A, the “polymerase ribozyme fitness (log ratio)” value was -1.16.

With A20G G86U A91C U146G, the “polymerase ribozyme fitness (log ratio)” value is at most -4.2.

Consider A23U C35A A60G G84C G86A C96A G140U, for which the “polymerase ribozyme fitness (log ratio)” value was at most -4.2.

In the case of G86A U148A, the “polymerase ribozyme fitness (log ratio)” value is -3.4.

Take C32U C51G G70A C76U G83U G84A A98G U135G: the “polymerase ribozyme fitness (log ratio)” value is at most -4.2.

C43A: the “polymerase ribozyme fitness (log ratio)” value was -4.

Take G59C C96U: the “polymerase ribozyme fitness (log ratio)” value was 0.681.

For the variant U7A A17U A24G U56A C93U U134A, the “polymerase ribozyme fitness (log ratio)” value is at most -4.2.

Regarding G83U C114G A115U A119U U134A, the “polymerase ribozyme fitness (log ratio)” value is at most -4.2.

Turning to C36A G58A G67U G81C C103G A113U U134G G141U, the “polymerase ribozyme fitness (log ratio)” value was at most -4.2.

G11A G50A C63U C93U: the “polymerase ribozyme fitness (log ratio)” value was -1.77.

Turning to U4G G140C, the “polymerase ribozyme fitness (log ratio)” value is at most -4.2.

For the variant A22U U55G C57U, the “polymerase ribozyme fitness (log ratio)” value turned out to be 0.196.

As for U44A A66U C85A, the “polymerase ribozyme fitness (log ratio)” value is at most -4.2.

A3U A20C U31G C36A: the “polymerase ribozyme fitness (log ratio)” value was at most -4.2.

For the variant A41U C57G C123A, the “polymerase ribozyme fitness (log ratio)” value was -2.99.

Turning to C54A G80C C114A U127G G143C, the “polymerase ribozyme fitness (log ratio)” value was at most -4.2.

Turning to C87A C95U G141C, the “polymerase ribozyme fitness (log ratio)” value is -4.16.

For A20U A23U A37U C51U C69A C105U, the “polymerase ribozyme fitness (log ratio)” value is at most -4.2.

As for C8U C10U C32G C35G C95U G136A, the “polymerase ribozyme fitness (log ratio)” value was at most -4.2.

Take A73C C96A: the “polymerase ribozyme fitness (log ratio)” value was -3.14.

Consider A40U U145A, for which the “polymerase ribozyme fitness (log ratio)” value was -0.163.

In the case of C69G G143C, the “polymerase ribozyme fitness (log ratio)” value is -4.1.

Consider U31G A113U U134G, for which the “polymerase ribozyme fitness (log ratio)” value was -3.56.
